Laboratory results reported in article PMC9163516, “Convergent evolution of a parasite-encoded complement control protein-scaffold to mimic binding of mammalian TGF-β to its receptors, TβRI and TβRII” (The Journal of Biological Chemistry, 2022).
Numbering of substitutions follows the chain as printed.

B1: biotinylated avi-tagged TGM-D3 (domain or fragment)
chain: GSGTGCPPLPDDGIVFYEYYGYAGDRHTVGPVVTKDSSGNYPSPTHARRRCRALSQEADPGEFVAICYKSGTTGESHWEYYKNIGKCPDP
modifications: a single biotin on the avi tag (BirA)
notes: also called TGM-D3 (SPR surface); not shown: Thioredoxin, N-terminal, cleaved; His6, N-terminal, cleaved
B2: TGM-D3 (domain or fragment)
chain: B1 chain
notes: also called WT TGM-D3; domain 3 of H. polygyrus TGF-β mimic; not shown: Thioredoxin, N-terminal, cleaved; His6, N-terminal, cleaved
B3: TGM-D3 I238A (domain or fragment)
chain: B1 chain with I66A
notes: not shown: Thioredoxin, N-terminal, cleaved; His6, N-terminal, cleaved
B4: TGM-D3 F235A (domain or fragment)
chain: B1 chain with F63A
notes: also called Phe235Ala; not shown: Thioredoxin, N-terminal, cleaved; His6, N-terminal, cleaved
B5: TGM-D3 K254A (domain or fragment)
chain: B1 chain with K82A
notes: also called Lys254Ala; not shown: Thioredoxin, N-terminal, cleaved; His6, N-terminal, cleaved
B6: TGM-D3 H199A (domain or fragment)
chain: B1 chain with H27A
notes: also called His199Ala; not shown: Thioredoxin, N-terminal, cleaved; His6, N-terminal, cleaved
B7: TGM-D3 K258A (domain or fragment)
chain: B1 chain with K86A
notes: also called Lys258Ala; not shown: Thioredoxin, N-terminal, cleaved; His6, N-terminal, cleaved
B8: TGM-D3 I256A (domain or fragment)
chain: B1 chain with I84A
notes: also called Ile256Ala; not shown: Thioredoxin, N-terminal, cleaved; His6, N-terminal, cleaved
B9: TGM-D3 N255A (domain or fragment)
chain: B1 chain with N83A
notes: also called Asn255Ala; not shown: Thioredoxin, N-terminal, cleaved; His6, N-terminal, cleaved
B10: TGM-D3 Y252A (domain or fragment)
chain: B1 chain with Y80A
notes: as for B3
B11: TGM-D3 V236A (domain or fragment)
chain: B1 chain with V64A
notes: also called Val236Ala; not shown: Thioredoxin, N-terminal, cleaved; His6, N-terminal, cleaved
B12: TGM-D12 (domain or fragment)
chain: DDSGCMPFSDEAATYKYVAKGPKNIEIPAQIDNSGMYPDYTHVKRFCKGLHGEDTTGWFVGICLASQWYYYEGVQECDDRRCSPLPTNDTVSFEYLKATVNPGIIFNITVHPDASGKYPELTYIKRICKNFPTDSNVQGHIIGMCYNAEWQFSSTPTCPAS
modifications: refolded from E. coli, disulfide-bonded; start from the listed D1 range (16-95), end set just before D3 (Cys178 is the first D3 cysteine; 7SXB places D3 at about 177-262); vector residues left after …
B13: TβRI ectodomain (receptor)
chain: LQCFCHLCTKDNFTCVTDGLCFVSVTETTDKVIHNSMCIAEIDLIPRDRPFVCAPSSKTGSVTTTYCCNQDHCNKIELPTTVKSSPGLGPVEL
notes: also called TGF-β type I receptor
B14: TGM-D2 (domain or fragment)
chain: RCSPLPTNDTVSFEYLKATVNPGIIFNITVHPDASGKYPELTYIKRICKNFPTDSNVQGHIIGMCYNAEWQFSSTPTCPAS
modifications: refolded from E. coli, disulfide-bonded; limits set between D1 (ends at 95) and D3 (starts at about 177); vector residues left after thrombin cleavage omitted

Tests used:
Details in all cases: both partners purified
TβRII D55N = biological target: T1, TβRII D55N (UniProt P37173 23-166, D55N); assay: SPR; biotinylated avi-tagged TGM-D3 captured (50-150 RU) on a neutravidin-coated CM-5 chip, TβRII and its variants injected; 25 mM Hepes, pH 7.4, 150 mM NaCl, 0.05% surfactant P20, 100 µl/min; 1:1 kinetic fit of duplicate or triplicate injection series
T1 construct: also called Asp55Asn

TβRII I73A = biological target: T2, TβRII I73A (UniProt P37173 23-166, I73A); assay: as above
T2 construct: also called Ile73Ala

TβRII S75L = biological target: T3, TβRII S75L (UniProt P37173 23-166, S75L); assay: as above
T3 construct: also called Ser75Leu

TβRII I76A = biological target: T4, TβRII I76A (UniProt P37173 23-166, I76A); assay: as above
T4 construct: also called Ile76Ala

TβRII E142Q = biological target: T5, TβRII E142Q (UniProt P37173 23-166, E142Q); assay: as above
T5 construct: also called Glu142Gln

TβRII ectodomain [1] = biological target: T6, TβRII ectodomain (UniProt P37173 23-166); assay: as above
T6 construct: also called WT TβRII; TGF-β type II receptor

TβRII ectodomain [2] = biological target: T6, TβRII ectodomain; assay: ITC; TGM construct in the syringe (300-320 µM), 15 µM TβRII in the cell; 25 mM sodium phosphate, 50 mM NaCl, pH 6.0, 35 °C; 1:1 model (Nitpic, Sedphat)
[3] = biological target: T7, biotinylated avi-tagged TβRII (UniProt P37173 23-166, a single biotin on the avi tag (BirA)); assay: SPR; biotinylated avi-tagged TβRII captured (50-150 RU) on a neutravidin-coated CM-5 chip, TGM-D3 and its variants injected; 25 mM Hepes, pH 7.4, 150 mM NaCl, 0.05% surfactant P20, 100 µl/min; 1:1 kinetic fit of duplicate or triplicate injection series
T7 construct: also called TβRII (SPR surface)

TβRI ectodomain = biological target: B13; assay: ITC; TGM construct titrated into TβRI in the cell; 25 mM Hepes, 50 mM NaCl, 0.05% NaN3, pH 7.5, 25 °C; 1:1 model
TGM-D2 = biological target: B14; assay: NMR titration; 1H-15N HSQC of 15N TGM-D2 or 15N TGM-D3 with 0 to 1.4 equivalents of unlabeled TβRI; 25 mM sodium phosphate, 50 mM NaCl, pH 7.0, 310 K (legend of Figure 3)

T7 sequence (P37173 23-166): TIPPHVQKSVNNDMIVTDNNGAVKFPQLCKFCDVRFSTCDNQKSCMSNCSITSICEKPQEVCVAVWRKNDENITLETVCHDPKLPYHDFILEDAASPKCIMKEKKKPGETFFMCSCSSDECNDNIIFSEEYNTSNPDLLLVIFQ
T6 sequence (P37173 23-166): as above
T1 sequence (P37173 23-166 D55N): as the sequence (P37173 23-166) above, with D33N counted along it
T5 sequence (P37173 23-166 E142Q): as the sequence (P37173 23-166) above, with E120Q counted along it
T2 sequence (P37173 23-166 I73A): as the sequence (P37173 23-166) above, with I51A counted along it
T3 sequence (P37173 23-166 S75L): as the sequence (P37173 23-166) above, with S53L counted along it
T4 sequence (P37173 23-166 I76A): as the sequence (P37173 23-166) above, with I54A counted along it

Binder | Kd [3] [µM] | koff [3] [s⁻¹] | kon [3] [M⁻¹ s⁻¹] | also measured
B1 | – | – | – | Kd (TβRII D55N): 63 ± 1 µM; koff (TβRII D55N): 3.1 ± 0.1 s⁻¹; kon (TβRII D55N): 50000 M⁻¹ s⁻¹; Kd (TβRII I73A): 6.9 ± 0.1 µM; koff (TβRII I73A): 1.1 ± 0.1 s⁻¹; kon (TβRII I73A): 160000 M⁻¹ s⁻¹; Kd (TβRII S75L): 310 ± 30 µM; koff (TβRII S75L): 3.9 ± 0.9 s⁻¹; kon (TβRII S75L): 13000 M⁻¹ s⁻¹; Kd (TβRII I76A): 26 ± 1 µM; koff (TβRII I76A): 1.2 ± 0.1 s⁻¹; kon (TβRII I76A): 47000 M⁻¹ s⁻¹; Kd (TβRII E142Q): 17 ± 1 µM; koff (TβRII E142Q): 10 ± 10 s⁻¹; kon (TβRII E142Q): 410000 M⁻¹ s⁻¹; Kd (TβRII ectodomain [1]): 1.6 ± 0.1 µM; koff (TβRII ectodomain [1]): 0.7 ± 0.1 s⁻¹; kon (TβRII ectodomain [1]): 410000 M⁻¹ s⁻¹
B2 | 1.6 ± 0.1 | 0.26 ± 0.01 | 160000 | Kd (TβRII ectodomain [2]): 1.2 µM; stoichiometry N (TβRII ectodomain [2]): 1.1
B3 | 25 ± 1 | 2.3 ± 0.1 | 94000 | –
B4 | 4.1 ± 0.1 | 1.8 ± 0.2 | 450000 | –
B5 | 35 ± 1 | 12 ± 6 | 300000 | –
B6 | 3 ± 0.1 | 0.98 ± 0.01 | 330000 | –
B7 | 2.7 ± 0.1 | 1.2 ± 0.1 | 430000 | –
B8 | 1.6 ± 0.1 | 1.4 ± 0.1 | 880000 | –
B9 | 2.7 ± 0.1 | 1.3 ± 0.1 | 480000 | –
B10 | 21 ± 1 | 1.7 ± 0.1 | 78000 | –
B11 | 4.6 ± 0.1 | 1.8 ± 0.1 | 380000 | –
B12 | – | – | – | Kd (TβRI ectodomain): 0.025 µM; dH (TβRI ectodomain): -19 kcal/mol; stoichiometry N (TβRI ectodomain): ~1
B13 | – | – | – | stoichiometry N (TGM-D2): 1
B14 | – | – | – | fold increase of KD against TGM-FL (TβRI ectodomain): ~50 fold; stoichiometry N (TβRI ectodomain): ~0.5
